These results are taken from patent US20200270335A1 (Biogen, published 2020).

Assay [1] concerns the target LRP6 of Super TopFlash (STF, HEK293) cells (UniProt O75581 20-1613, limits assumed). Put plainly: cell-based or functional assay.
Assay [2] has as its target T1, human LRP6 on huLRP6-expressing BaF3 cells (human, UniProt O75581 20-1613).
T1 construct: whole, on cells; also called Lipoprotein receptor like protein 6
The assay is described as follows: FACS LRP6 binding assay, competition with anti-LRP6 antibody (FIG. 50).

T1 sequence (O75581 20-1613): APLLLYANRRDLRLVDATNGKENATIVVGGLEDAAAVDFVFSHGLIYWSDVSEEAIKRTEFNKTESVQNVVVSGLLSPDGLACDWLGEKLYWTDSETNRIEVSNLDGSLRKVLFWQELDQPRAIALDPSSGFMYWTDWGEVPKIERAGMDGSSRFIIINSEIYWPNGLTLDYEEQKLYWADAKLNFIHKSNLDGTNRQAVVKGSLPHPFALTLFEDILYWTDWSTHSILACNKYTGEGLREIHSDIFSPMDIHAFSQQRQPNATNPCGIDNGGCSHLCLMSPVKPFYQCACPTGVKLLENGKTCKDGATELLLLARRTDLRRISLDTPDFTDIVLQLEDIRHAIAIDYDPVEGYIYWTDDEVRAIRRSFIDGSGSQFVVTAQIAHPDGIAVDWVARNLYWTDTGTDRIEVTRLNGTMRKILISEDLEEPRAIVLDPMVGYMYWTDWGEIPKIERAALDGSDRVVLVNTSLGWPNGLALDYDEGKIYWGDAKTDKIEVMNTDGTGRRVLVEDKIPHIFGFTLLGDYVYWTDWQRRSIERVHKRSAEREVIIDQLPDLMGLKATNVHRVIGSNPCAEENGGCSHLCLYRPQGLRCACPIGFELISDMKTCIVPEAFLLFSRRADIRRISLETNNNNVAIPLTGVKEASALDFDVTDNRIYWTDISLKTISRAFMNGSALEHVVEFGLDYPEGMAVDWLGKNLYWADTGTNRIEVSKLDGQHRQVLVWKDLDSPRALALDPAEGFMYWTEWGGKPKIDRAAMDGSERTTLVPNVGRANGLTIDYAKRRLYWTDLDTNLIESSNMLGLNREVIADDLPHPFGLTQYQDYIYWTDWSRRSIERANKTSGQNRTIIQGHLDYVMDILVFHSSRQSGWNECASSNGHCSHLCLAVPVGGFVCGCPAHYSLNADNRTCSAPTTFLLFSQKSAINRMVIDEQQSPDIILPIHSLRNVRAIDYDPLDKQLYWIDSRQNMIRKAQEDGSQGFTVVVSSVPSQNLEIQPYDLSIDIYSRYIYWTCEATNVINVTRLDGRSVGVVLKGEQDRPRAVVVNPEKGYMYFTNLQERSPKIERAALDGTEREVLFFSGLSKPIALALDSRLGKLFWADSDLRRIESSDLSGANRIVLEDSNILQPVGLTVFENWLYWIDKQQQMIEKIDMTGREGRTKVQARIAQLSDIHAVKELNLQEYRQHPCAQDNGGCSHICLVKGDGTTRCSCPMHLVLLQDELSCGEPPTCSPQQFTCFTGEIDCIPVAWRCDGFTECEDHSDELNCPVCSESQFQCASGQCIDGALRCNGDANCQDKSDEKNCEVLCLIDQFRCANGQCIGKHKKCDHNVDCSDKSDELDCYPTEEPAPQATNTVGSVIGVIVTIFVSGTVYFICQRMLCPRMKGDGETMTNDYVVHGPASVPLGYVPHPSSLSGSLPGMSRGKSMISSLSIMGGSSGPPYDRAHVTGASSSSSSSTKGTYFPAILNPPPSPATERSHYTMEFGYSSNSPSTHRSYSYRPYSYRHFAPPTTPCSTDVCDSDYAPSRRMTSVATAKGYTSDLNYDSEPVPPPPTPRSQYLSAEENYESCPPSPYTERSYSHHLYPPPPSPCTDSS
Chain of LRP6 of Super TopFlash (STF, HEK293) cells (O75581 20-1613 limits assumed): as the sequence (O75581 20-1613) above

B1: untagged murine DKK2-C2 from E. coli (ligand)
chain: GSMPHIKGHEGDPCLRSSDCIDGFCCARHFWTKICKPVLHQGEVCTKQRKKGSHGLEIFQRCDCAKGLSCKVWKDATYSSKARLHVCQKI
notes: also called E. coli DKK2 C2; non-PEGylated untagged DKK2-C2
For orientation: IC50 means the midpoint of a concentration-inhibition curve. Higher therefore signals lower potency. B1: the “IC50 in the Wnt signaling Super Top Flash (STF) activity assay” value in assay [1] was about 20 nM. In assay [2], the concentration for half-maximal inhibition (IC50) was found to be 20 nM.

B2: PEGylated untagged murine DKK2-C2 from E. coli (ligand)
chain: B1 chain
modifications: monoPEGylated with 20k-PEG-2-methyl proprionaldehyde and sodium cyanoborohydride; site not stated
notes: also called monoPEGylated DKK2 C2; PEGylated version of DKK2 C2
In turn, B2 displayed an IC50 in assay [2] of 326 nM.
